Numbered stars: 1 amine (or outer) side, 2 acyl side, 3 side chain; on linkers, the order of the positions; unused ones are H or OH. Bridge positions count the residues as written; N and C are the ends. Side chains are listed from the residue outwards. Ends that are not written are not given here. * marks the point of attachment. C20 diacid = O=C(O)CCCCCCCCCCCCCCCCCCC(=O)*; γGlu = O=C(O)[C@H](CCC(=O)[*:2])N[*:1]
T1: human amylin 3(a) receptor (human calcitonin receptor co-expressed with RAMP-3) (human, UniProt P30988 25-474; O60896 24-148, limits assumed)
T1 sequence (looked up) 1: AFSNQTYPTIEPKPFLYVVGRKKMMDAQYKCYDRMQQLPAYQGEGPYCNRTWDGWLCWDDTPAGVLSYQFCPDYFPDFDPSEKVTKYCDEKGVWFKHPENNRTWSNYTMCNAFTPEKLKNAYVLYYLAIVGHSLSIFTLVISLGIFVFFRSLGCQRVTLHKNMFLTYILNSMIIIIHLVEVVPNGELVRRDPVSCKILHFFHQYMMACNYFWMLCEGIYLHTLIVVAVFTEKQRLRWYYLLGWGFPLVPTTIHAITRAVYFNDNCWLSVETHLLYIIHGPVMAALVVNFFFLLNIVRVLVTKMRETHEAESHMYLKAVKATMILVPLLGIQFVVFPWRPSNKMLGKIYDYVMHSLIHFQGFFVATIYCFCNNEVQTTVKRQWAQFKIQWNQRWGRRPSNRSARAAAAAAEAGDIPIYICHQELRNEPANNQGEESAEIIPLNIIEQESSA
T1 sequence (looked up) 2: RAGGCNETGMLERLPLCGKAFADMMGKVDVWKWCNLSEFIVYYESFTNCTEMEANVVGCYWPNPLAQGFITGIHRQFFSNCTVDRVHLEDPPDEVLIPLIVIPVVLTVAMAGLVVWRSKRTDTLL

B1: N^ε1-[(4S)-4-carboxy-4-(19-carboxynonadecanoylamino)butanoyl]-[Arg14,Arg17,Pro21,Pro27,Pro34]-h-amylin (peptide)
peptide: K([γGlu-C20 diacid])CNTATCATQRLARFLRHSSPNFGAIPSSTNVGPNTY-NH2
modifications: disulfide 2-7; N-terminus assumed
SMILES: CC[C@H](C)[C@H](NC(=O)[C@H](C)NC(=O)CNC(=O)[C@H](Cc1ccccc1)NC(=O)[C@H](CC(N)=O)NC(=O)[C@@H]1CCCN1C(=O)[C@H](CO)NC(=O)[C@H](CO)NC(=O)[C@H](Cc1c[nH]cn1)NC(=O)[C@H](CCCNC(=N)N)NC(=O)[C@H](CC(C)C)NC(=O)[C@H](Cc1ccccc1)NC(=O)[C@H](CCCNC(=N)N)NC(=O)[C@H](C)NC(=O)[C@H](CC(C)C)NC(=O)[C@H](CCCNC(=N)N)NC(=O)[C@H](CCC(N)=O)NC(=O)[C@@H](NC(=O)[C@H](C)NC(=O)[C@@H]1CSSC[C@H](NC(=O)[C@@H](N)CCCCNC(=O)CC[C@H](NC(=O)CCCCCCCCCCCCCCCCCCC(=O)O)C(=O)O)C(=O)N[C@@H](CC(N)=O)C(=O)N[C@@H]([C@@H](C)O)C(=O)N[C@@H](C)C(=O)N[C@@H]([C@@H](C)O)C(=O)N1)[C@@H](C)O)C(=O)N1CCC[C@H]1C(=O)N[C@@H](CO)C(=O)N[C@@H](CO)C(=O)N[C@H](C(=O)N[C@@H](CC(N)=O)C(=O)N[C@H](C(=O)NCC(=O)N1CCC[C@H]1C(=O)N[C@@H](CC(N)=O)C(=O)N[C@H](C(=O)N[C@@H](Cc1ccc(O)cc1)C(N)=O)[C@@H](C)O)C(C)C)[C@@H](C)O
notes: also called compound 65
B2: N^ε1-[(4S)-4-carboxy-4-(19-carboxynonadecanoylamino)butanoyl]-[Arg14,Arg17,Pro21,Pro27]-h-amylin (peptide)
peptide: K([γGlu-C20 diacid])CNTATCATQRLARFLRHSSPNFGAIPSSTNVGSNTY-NH2
modifications: disulfide 2-7; N-terminus assumed
SMILES: CC[C@H](C)[C@H](NC(=O)[C@H](C)NC(=O)CNC(=O)[C@H](Cc1ccccc1)NC(=O)[C@H](CC(N)=O)NC(=O)[C@@H]1CCCN1C(=O)[C@H](CO)NC(=O)[C@H](CO)NC(=O)[C@H](Cc1c[nH]cn1)NC(=O)[C@H](CCCNC(=N)N)NC(=O)[C@H](CC(C)C)NC(=O)[C@H](Cc1ccccc1)NC(=O)[C@H](CCCNC(=N)N)NC(=O)[C@H](C)NC(=O)[C@H](CC(C)C)NC(=O)[C@H](CCCNC(=N)N)NC(=O)[C@H](CCC(N)=O)NC(=O)[C@@H](NC(=O)[C@H](C)NC(=O)[C@@H]1CSSC[C@H](NC(=O)[C@@H](N)CCCCNC(=O)CC[C@H](NC(=O)CCCCCCCCCCCCCCCCCCC(=O)O)C(=O)O)C(=O)N[C@@H](CC(N)=O)C(=O)N[C@@H]([C@@H](C)O)C(=O)N[C@@H](C)C(=O)N[C@@H]([C@@H](C)O)C(=O)N1)[C@@H](C)O)C(=O)N1CCC[C@H]1C(=O)N[C@@H](CO)C(=O)N[C@@H](CO)C(=O)N[C@H](C(=O)N[C@@H](CC(N)=O)C(=O)N[C@H](C(=O)NCC(=O)N[C@@H](CO)C(=O)N[C@@H](CC(N)=O)C(=O)N[C@H](C(=O)N[C@@H](Cc1ccc(O)cc1)C(N)=O)[C@@H](C)O)C(C)C)[C@@H](C)O
notes: also called compound 83
B3: N^ε1-[(4S)-4-carboxy-4-(19-carboxynonadecanoylamino)butanoyl]-[Arg17,Pro21,Pro27,His34]-h-amylin (peptide)
peptide: K([γGlu-C20 diacid])CNTATCATQRLANFLRHSSPNFGAIPSSTNVGHNTY-NH2
modifications: disulfide 2-7; N-terminus assumed
SMILES: CC[C@H](C)[C@H](NC(=O)[C@H](C)NC(=O)CNC(=O)[C@H](Cc1ccccc1)NC(=O)[C@H](CC(N)=O)NC(=O)[C@@H]1CCCN1C(=O)[C@H](CO)NC(=O)[C@H](CO)NC(=O)[C@H](Cc1c[nH]cn1)NC(=O)[C@H](CCCNC(=N)N)NC(=O)[C@H](CC(C)C)NC(=O)[C@H](Cc1ccccc1)NC(=O)[C@H](CC(N)=O)NC(=O)[C@H](C)NC(=O)[C@H](CC(C)C)NC(=O)[C@H](CCCNC(=N)N)NC(=O)[C@H](CCC(N)=O)NC(=O)[C@@H](NC(=O)[C@H](C)NC(=O)[C@@H]1CSSC[C@H](NC(=O)[C@@H](N)CCCCNC(=O)CC[C@H](NC(=O)CCCCCCCCCCCCCCCCCCC(=O)O)C(=O)O)C(=O)N[C@@H](CC(N)=O)C(=O)N[C@@H]([C@@H](C)O)C(=O)N[C@@H](C)C(=O)N[C@@H]([C@@H](C)O)C(=O)N1)[C@@H](C)O)C(=O)N1CCC[C@H]1C(=O)N[C@@H](CO)C(=O)N[C@@H](CO)C(=O)N[C@H](C(=O)N[C@@H](CC(N)=O)C(=O)N[C@H](C(=O)NCC(=O)N[C@@H](Cc1c[nH]cn1)C(=O)N[C@@H](CC(N)=O)C(=O)N[C@H](C(=O)N[C@@H](Cc1ccc(O)cc1)C(N)=O)[C@@H](C)O)C(C)C)[C@@H](C)O
notes: also called compound 77
B4: N^ε1-[(4S)-4-carboxy-4-(19-carboxynonadecanoylamino)butanoyl]-[Arg17,Pro21,Pro27,Glu35]-h-amylin (peptide)
peptide: K([γGlu-C20 diacid])CNTATCATQRLANFLRHSSPNFGAIPSSTNVGSETY-NH2
modifications: disulfide 2-7; N-terminus assumed
SMILES: CC[C@H](C)[C@H](NC(=O)[C@H](C)NC(=O)CNC(=O)[C@H](Cc1ccccc1)NC(=O)[C@H](CC(N)=O)NC(=O)[C@@H]1CCCN1C(=O)[C@H](CO)NC(=O)[C@H](CO)NC(=O)[C@H](Cc1c[nH]cn1)NC(=O)[C@H](CCCNC(=N)N)NC(=O)[C@H](CC(C)C)NC(=O)[C@H](Cc1ccccc1)NC(=O)[C@H](CC(N)=O)NC(=O)[C@H](C)NC(=O)[C@H](CC(C)C)NC(=O)[C@H](CCCNC(=N)N)NC(=O)[C@H](CCC(N)=O)NC(=O)[C@@H](NC(=O)[C@H](C)NC(=O)[C@@H]1CSSC[C@H](NC(=O)[C@@H](N)CCCCNC(=O)CC[C@H](NC(=O)CCCCCCCCCCCCCCCCCCC(=O)O)C(=O)O)C(=O)N[C@@H](CC(N)=O)C(=O)N[C@@H]([C@@H](C)O)C(=O)N[C@@H](C)C(=O)N[C@@H]([C@@H](C)O)C(=O)N1)[C@@H](C)O)C(=O)N1CCC[C@H]1C(=O)N[C@@H](CO)C(=O)N[C@@H](CO)C(=O)N[C@H](C(=O)N[C@@H](CC(N)=O)C(=O)N[C@H](C(=O)NCC(=O)N[C@@H](CO)C(=O)N[C@@H](CCC(=O)O)C(=O)N[C@H](C(=O)N[C@@H](Cc1ccc(O)cc1)C(N)=O)[C@@H](C)O)C(C)C)[C@@H](C)O
notes: also called compound 27
B5: N^ε1-[(4S)-4-carboxy-4-(19-carboxynonadecanoylamino)butanoyl]-[Arg17,Pro21,Pro27,His35]-h-amylin (peptide)
peptide: K([γGlu-C20 diacid])CNTATCATQRLANFLRHSSPNFGAIPSSTNVGSHTY-NH2
modifications: disulfide 2-7; N-terminus assumed
SMILES: CC[C@H](C)[C@H](NC(=O)[C@H](C)NC(=O)CNC(=O)[C@H](Cc1ccccc1)NC(=O)[C@H](CC(N)=O)NC(=O)[C@@H]1CCCN1C(=O)[C@H](CO)NC(=O)[C@H](CO)NC(=O)[C@H](Cc1c[nH]cn1)NC(=O)[C@H](CCCNC(=N)N)NC(=O)[C@H](CC(C)C)NC(=O)[C@H](Cc1ccccc1)NC(=O)[C@H](CC(N)=O)NC(=O)[C@H](C)NC(=O)[C@H](CC(C)C)NC(=O)[C@H](CCCNC(=N)N)NC(=O)[C@H](CCC(N)=O)NC(=O)[C@@H](NC(=O)[C@H](C)NC(=O)[C@@H]1CSSC[C@H](NC(=O)[C@@H](N)CCCCNC(=O)CC[C@H](NC(=O)CCCCCCCCCCCCCCCCCCC(=O)O)C(=O)O)C(=O)N[C@@H](CC(N)=O)C(=O)N[C@@H]([C@@H](C)O)C(=O)N[C@@H](C)C(=O)N[C@@H]([C@@H](C)O)C(=O)N1)[C@@H](C)O)C(=O)N1CCC[C@H]1C(=O)N[C@@H](CO)C(=O)N[C@@H](CO)C(=O)N[C@H](C(=O)N[C@@H](CC(N)=O)C(=O)N[C@H](C(=O)NCC(=O)N[C@@H](CO)C(=O)N[C@@H](Cc1c[nH]cn1)C(=O)N[C@H](C(=O)N[C@@H](Cc1ccc(O)cc1)C(N)=O)[C@@H](C)O)C(C)C)[C@@H](C)O
notes: also called compound 60
B6: N^ε1-[(4S)-4-carboxy-4-(19-carboxynonadecanoylamino)butanoyl]-[Arg17,Pro21,Pro27,Arg34]-h-amylin (peptide)
peptide: K([γGlu-C20 diacid])CNTATCATQRLANFLRHSSPNFGAIPSSTNVGRNTY-NH2
modifications: disulfide 2-7; N-terminus assumed
SMILES: CC[C@H](C)[C@H](NC(=O)[C@H](C)NC(=O)CNC(=O)[C@H](Cc1ccccc1)NC(=O)[C@H](CC(N)=O)NC(=O)[C@@H]1CCCN1C(=O)[C@H](CO)NC(=O)[C@H](CO)NC(=O)[C@H](Cc1c[nH]cn1)NC(=O)[C@H](CCCNC(=N)N)NC(=O)[C@H](CC(C)C)NC(=O)[C@H](Cc1ccccc1)NC(=O)[C@H](CC(N)=O)NC(=O)[C@H](C)NC(=O)[C@H](CC(C)C)NC(=O)[C@H](CCCNC(=N)N)NC(=O)[C@H](CCC(N)=O)NC(=O)[C@@H](NC(=O)[C@H](C)NC(=O)[C@@H]1CSSC[C@H](NC(=O)[C@@H](N)CCCCNC(=O)CC[C@H](NC(=O)CCCCCCCCCCCCCCCCCCC(=O)O)C(=O)O)C(=O)N[C@@H](CC(N)=O)C(=O)N[C@@H]([C@@H](C)O)C(=O)N[C@@H](C)C(=O)N[C@@H]([C@@H](C)O)C(=O)N1)[C@@H](C)O)C(=O)N1CCC[C@H]1C(=O)N[C@@H](CO)C(=O)N[C@@H](CO)C(=O)N[C@H](C(=O)N[C@@H](CC(N)=O)C(=O)N[C@H](C(=O)NCC(=O)N[C@@H](CCCNC(=N)N)C(=O)N[C@@H](CC(N)=O)C(=O)N[C@H](C(=O)N[C@@H](Cc1ccc(O)cc1)C(N)=O)[C@@H](C)O)C(C)C)[C@@H](C)O
notes: also called compound 79

The binders below were run against T1, human amylin 3(a) receptor (human …) (assay: cell-based or functional assay).
For B1, the “Ratio hCT/hAmylin funct. (hCTR EC50 over hAmylin-R EC50)” value was 38.6 and the “hAmylin-R funct. EC50 (pM)” value was 242 pM.
For B2, the “Ratio hCT/hAmylin funct. (hCTR EC50 over hAmylin-R EC50)” value was 41.6 and the “hAmylin-R funct. EC50 (pM)” value was 405 pM.
For B3, the “Ratio hCT/hAmylin funct. (hCTR EC50 over hAmylin-R EC50)” value was 37.3 and the “hAmylin-R funct. EC50 (pM)” value was 145 pM.
In the case of B4, the “Ratio hCT/hAmylin funct. (hCTR EC50 over hAmylin-R EC50)” value is reported as 22.6 and the “hAmylin-R funct. EC50 (pM)” value is reported as 133 pM.
For B5, the “Ratio hCT/hAmylin funct. (hCTR EC50 over hAmylin-R EC50)” value was 15.3 and the “hAmylin-R funct. EC50 (pM)” value was 351 pM.
With B6 the “Ratio hCT/hAmylin funct. (hCTR EC50 over hAmylin-R EC50)” value was 24.5 and the “hAmylin-R funct. EC50 (pM)” value was 161 pM.
